Columns and labels:
[1] = molecular target: surface of P815-PSA cells (PSA-transfected DBA/2 mastocytoma cell line); experiment: FACS on P815-PSA cells; negative control 3
[2] = molecular target: surface of P815-PSA cells (PSA-transfected DBA/2 mastocytoma cell line); experiment: FACS on P815-PSA cells; negative control 5
[3] = molecular target: surface of Line-1-PSA cells (PSA-transfected Balb/cByJ lung carcinoma cell line); experiment: FACS on Line 1-PSA cells; negative control 4
[4] = molecular target: surface of Line-1-PSA cells (PSA-transfected Balb/cByJ lung carcinoma cell line); experiment: FACS on Line 1-PSA cells; negative control 7

mean fluorescence [1]: 11
mean fluorescence [2]: 37
mean fluorescence [3]: 5
mean fluorescence [4]: 8
Substance: MOPC-21 (antibody)

Reference: patent publication US7579445
